From paper PMC5797297, “92R Monoclonal Antibody Inhibits Human CCR9^+ Leukemia Cells Growth in NSG Mice Xenografts” (Frontiers in Immunology, 2018)
Residue numbers refer to the chain shown, from its start.

Assays:
[1] = target: T1, hCCR9(2–22) synthetic peptide (coat of the ELISA; competitor in SPR) (Homo sapiens, CCR9 isoform A, UniProt P51686); assay: ELISA; competitive ELISA: hCCR9(2–22) peptide coated at 1 µg/ml in PBS overnight at 4°C; biotin-labeled mAb mixed with unlabeled mAb (2 µg/ml in PBS–0.5% BSA), 1 h at room temperature; peroxidase-labeled streptavidin; conditions: both partners purified
T1 construct: human CCR9 isoform A, residues 2-22; May be the same peptide as m5; also called hCCR9 (aa 2–22) synthetic peptide; peptide hCCR9 (2–22); source: synthetic peptide
T1 chain: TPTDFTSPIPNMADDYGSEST

[2] = target: T2, endogenous CCR9 on MOLT-4 human T-ALL cells (Homo sapiens (Human)., UniProt P51686); assay: flow cytometry on cells; 2 x 10^5 cells blocked with 40 µg/ml rat IgG, incubated with the primary mAb 30 min at 4°C in PBS pH 7.4 with 0.5% BSA, 1% FBS, 0.1% sodium azide; revealed with FITC- or PE-goat F(ab')2 anti-mouse IgG; conditions: one partner purified
T2 construct: human CCR9 as expressed by MOLT-4 cells; also called CCR9^+ MOLT-4 cells; source: endogenous, on MOLT-4 cells
T2 sequence (P51686 whole entry): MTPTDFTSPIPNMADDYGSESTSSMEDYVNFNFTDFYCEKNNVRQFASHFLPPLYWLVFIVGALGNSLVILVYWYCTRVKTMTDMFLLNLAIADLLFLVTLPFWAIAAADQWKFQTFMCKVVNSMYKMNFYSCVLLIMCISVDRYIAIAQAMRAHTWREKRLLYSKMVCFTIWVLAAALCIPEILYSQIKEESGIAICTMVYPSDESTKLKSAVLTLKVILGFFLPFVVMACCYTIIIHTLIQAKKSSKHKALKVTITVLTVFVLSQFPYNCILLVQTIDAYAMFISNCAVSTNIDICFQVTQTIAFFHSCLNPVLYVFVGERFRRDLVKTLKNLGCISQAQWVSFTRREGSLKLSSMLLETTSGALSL

[3] = target: T3, human chemokine receptor CCR9, A isoform, on stably transfected HEK-293 cells (Homo sapiens (Human)., UniProt P51686-1); assay: as above; conditions: one partner purified
T3 construct: also called hCCR9-A; hCCR9-HEK-293; source: HEK-293, stably transfected (pCIneo-hCCR9), on cells
T3 sequence (P51686 whole entry, canonical isoform): as the sequence (P51686 whole entry) above

[4] = target: T4, synthetic peptide hCCR9A aa 2–22 with an additional N-terminal cysteine (Homo sapiens (Human).); assay: SPR; Biacore 3000; Cys-hCCR9A(2–22) peptide amine-coupled at low density to a CM5 chip; mAb as analyte at 0.41 to 33 nM; HBS-EP pH 7.4, 25°C, 30 µl/min; bivalent analyte model; apparent; conditions: both partners purified
T4 construct: additional cysteine residue at the N terminus; human CCR9 isoform A, residues 2-22; Amine-coupled to a CM5 chip for the kinetic SPR; also called hCCR9 (2–22); source: synthetic peptide
T4 chain: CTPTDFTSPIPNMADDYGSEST

[5] = target: T5, peptide hCCR9 (13–30), corresponding to the N-terminus of the B isoform (Homo sapiens, UniProt P51686-1); assay: SPR; competition: biotin-K-hCCR9A(2–19) captured on a streptavidin (SA) chip; mAb at 10 nM preincubated 30 min with competitor peptide (0.01–1 µM; 1 µM in Figure 6C,D); HBS-EP pH 7.4; conditions: both partners purified
T5 construct: human CCR9, residues 13-30 on the numbering of isoform A (the B isoform starts in M13 of hCCR9-A); source: synthetic peptide
T5 chain: MADDYGSESTSSMEDYVN

peptide hCCR9 (10–30) = target: T6, peptide hCCR9 (10–30) (Homo sapiens (Human)., UniProt P51686-1); assay: as above; conditions: both partners purified
T6 construct: human CCR9 isoform A, residues 10-30; source: synthetic peptide
T6 chain: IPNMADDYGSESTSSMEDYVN

B1: 92R, mouse anti-human CCR9 monoclonal antibody (IgG2a) (antibody, V domains shown)
VH: EVKLEESGGGLVQPGGSMKLSCVASGFTFNKFWMNWVRQSPEKGLEWVAEIRLKSNNYATHYAESVKGRFTISRDDSKSSVYLQMNNLRAEDTGIYYCASDGWFAYWGQGTLVTVSA
VL: DVVMTQTPLSLPVSLGDQASISCRSSQSLVHSNGNTYLNWCLQRPGQSPKSLIYKVSNRFSGVPDRFSGSGSGTDFTLKISRVEAEDLGVYFCSQSTHFPRTFGGGTKLEIK
notes: heavy chain variable region of 92R; mouse IgG2a heavy chain constant region (isotype as stated); light chain variable region of 92R; light chain constant region; IgG2a; also called 92R mAb; anti-hCCR9 92R; source: mouse hybridoma, mAb purified from culture supernatants
B1: binds [1]; binds [2]; binds [3]. The Kd [4] was 8.9 nM, the binding result [5] was “no binding (tested: 1 µM)” and the binding result (peptide hCCR9 (10–30)) was “binds”.

B2: 91R, mouse anti-human CCR9 monoclonal antibody (IgG2b) (antibody, V domains shown)
VH: B1 VH with E6D, G16R, N30S, K31N, A90T, A99T
VL: DVVMTQTPLSLPVSLGDQTSISCRSSQSLLHSNGNTYVQWYLRKPGQSPKLLIYKVSNRFPGVPDRFSGSGSGTDFTFKISRVEAEDLGVYFCAQSTHVPRTFGGGTKLEIK
notes: heavy chain variable region of 91R; mouse IgG2b heavy chain constant region (isotype as stated); light chain variable region of 91R; light chain constant region; IgG2b; also called 91R mAb; anti-hCCR9 91R; source: mouse hybridoma, mAb purified from culture supernatants
With B2 the binding result [1] was “binds”, the binding result [2] was “binds” and the Kd [4] was 3.6 nM. B2: no binding (tested: 1 µM) [5].
